PMC6504948

Biological target: CD19 on CD19-positive tumor cells (Nalm6, Raji) (human (endogenous in Nalm6 and Raji)) (UniProt P15391)
Chain of UniProt P15391 (P15391 20-556): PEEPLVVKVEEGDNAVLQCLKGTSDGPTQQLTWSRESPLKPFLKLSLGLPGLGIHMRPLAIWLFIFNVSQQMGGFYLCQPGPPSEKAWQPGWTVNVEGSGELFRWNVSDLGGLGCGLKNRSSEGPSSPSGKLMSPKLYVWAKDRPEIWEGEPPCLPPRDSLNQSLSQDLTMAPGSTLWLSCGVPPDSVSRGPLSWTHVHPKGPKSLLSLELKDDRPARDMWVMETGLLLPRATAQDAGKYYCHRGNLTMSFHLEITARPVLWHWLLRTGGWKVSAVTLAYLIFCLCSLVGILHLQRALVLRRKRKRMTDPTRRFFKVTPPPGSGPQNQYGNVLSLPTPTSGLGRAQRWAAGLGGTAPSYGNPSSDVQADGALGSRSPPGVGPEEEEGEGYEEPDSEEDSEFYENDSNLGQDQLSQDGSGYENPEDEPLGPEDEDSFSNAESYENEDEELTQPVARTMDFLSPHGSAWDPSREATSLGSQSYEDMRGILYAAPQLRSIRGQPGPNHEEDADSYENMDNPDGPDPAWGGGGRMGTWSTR

## γ-TRuC (CD19-specific T cell receptor fusion construct: FMC63 scFv fused to full-length human CD3γ) (from UniProt P09693 23-182)
  conversion of transduced primary T cells into a CD69+/CD25+ phenotype after overnight co-culture with Nalm6 cells: 50%
